# Experimental data as given in article PMC8850199, “Structure, mechanism and lipid-mediated remodeling of the mammalian Na^+/H^+ exchanger NHA2” (Nature Structural & Molecular Biology, 2022).
# B1: bison NHA2ΔN (SLC9B2 without the first 69 residues), GFP-TwinStrep-His8 tag removed with TEV protease (domain or fragment, Bison bison)
# chain: RRRQIHACPPRGLLARVITNVTMVILLWAVVWSVTGSECLPGGNLFGIIMLFYCAIIGGKLFGLIKLPTLPPLPPLLGMLLAGFLIRNVPVISDNIQIKHKWSSALRSIALSVILVRAGLGLDSNALKKLKGVCVRLSLGPCLIEACTSAVLAYFLMGLPWQWGFMLGFVLGAVSPAVVVPSMLLLQEGGYGVEKGIPTLLMAAGSFDDILAITGFNTCLGMAFSTGSTVFNVLKGVLEVIIGVVTGLVLGFFIQYFPSSDQDNLVWKRAFLVLGLSVLAVFSSTYFGFPGSGGLCTLVTAFLAGRGWASTKTDVEKVIAVAWDIFQPLLFGLIGAEVLITALRPETIGLCVATLGIAVLIRILVTYLMVCFAGFNIKEKIFISFAWLPKATVQAAIGSVALDTARSHGEKQLEGYGMDVLTVAFLSIIITAPVGSLLIGLLGPRLLQKAEQNKDEEDQGETSIQV
# notes: Na+/H+ exchanger NHA2 (SLC9B2), Bison bison, without the first 69 residues of the N-terminal tail; numbers count on: the full-length bison NHA2 as printed; residues of it stay on the C-terminus after digestion; also called biNHA2ΔN; source: S. cerevisiae FGY217, purified (DDM/CHS, Ni-NTA, TEV digestion, SEC); for nanodiscs reconstituted as GFP fusion with MSP1E2 and yeast PI, then TEV digestion …
# Biological target: the molecule itself
# Test: native MS; detergent-purified NHA2ΔN exchanged into C12E9, ~20 μM, Q-Exactive Orbitrap modified for high m/z
protein,measurement,value
B1,stoichiometry N,2
